The labels stand for the following.
B1: WT-BM3 heme: WT heme domain (amino acids 1-463 of SEQ ID NO: 1) (protein, listed as Bacillus megaterium)
chain: TIKEMPQPKTFGELKNLPLLNTDKPVQALMKIADELGEIFKFEAPGRVTRYLSSQRLIKEACDESRFDKNLSQALKFVRDFAGDGLFTSWTHEKNWKKAHNILLPSFSQQAMKGYHAMMVDIAVQLVQKWERLNADEHIEVPEDMTRLTLDTIGLCGFNYRFNSFYRDQPHPFITSMVRALDEAMNKLQRANPDDPAYDENKRQFQEDIKVMNDLVDKIIADRKASGEQSDDLLTHMLNGKDPETGEPLDDENIRYQIITFLIAGHETTSGLLSFALYFLVKNPHVLQKAAEEAARVLVDPVPSYKQVKQLKYVGMVLNEALRLWPTAPAFSLYAKEDTVLGGEYPLEKGDELMVLIPQLHRDKTIWGDDVEEFRPERFENPSAIPQHAFKPFGNGQRACIGQQFALHEATLVLGMMLKHFDFEDHTNYELDIKETLTLKPEGFVVKAKSKKIPLGGIPSPST
modifications: cytochrome P450NADPH-P-450 reductase precursor, cytochrome P450 (BM3), CYP102A1
B2: WT-AxA: WT heme domain + C400A (protein)
chain: B1 chain with C400A, T438S, E442K
modifications: synthetic cytochrome P450-BM3 variant WT-AxA (heme)
notes: WT heme domain + C400A
B3: WT-AxS: WT heme domain + C400S (protein, listed as Bacillus megaterium)
chain: B1 chain with C400S
modifications: cytochrome P450NADPH-P-450 reductase precursor, cytochrome P450 (BM3), CYP102A1
notes: WT heme domain + C400S
B4: WT-AxK: WT heme domain + C400K (protein)
chain: B1 chain with C400K, T438S, E442K
modifications: synthetic cytochrome P450-BM3 variant WT-AxK (heme)
notes: WT heme domain + C400K
B5: WT-AxM: WT heme domain + C400M (protein)
chain: B1 chain with C400M, T438S, E442K
modifications: synthetic cytochrome P450-BM3 variant WT-AxM (heme)
notes: WT heme domain + C400M
B6: WT-AxN: WT heme domain + C400N (protein)
chain: B1 chain with C400N, T438S, E442K
modifications: synthetic cytochrome P450-BM3 variant WT-AxN (heme)
notes: WT heme domain + C400N
B7: WT-AxY: WT heme domain + C400Y (protein, listed as Bacillus megaterium)
chain: B1 chain with C400Y
modifications: cytochrome P450NADPH-P-450 reductase precursor, cytochrome P450 (BM3), CYP102A1
notes: WT heme domain + C400Y

Changes are numbered by the printed parent chain. In names and notes the source's numbering stands.

The nature of the first assay: N—H insertion, aniline with ethyl 2-diazopropanoate. The following applies: 10 μM catalyst, 20 mM aniline, 10 mM Na2S2O4, 10 mM ethyl 2-diazopropanoate. The class given is biochemical. Here is the method: The reactions shown in FIG. 37A were carried out with protein (20 μM), ethyl diazo acetate (8.5 mM), aniline (20 mM) and Na2S2O4 (10 mM) in phosphate buffer (pH 8) and allowed to shake at room temperature for 12 h. Yields are reported in parenthesis and TTN are presented in italics. Yields were determined by GC calibrated for each product. An isolated yield of 65% for compound 4.3 was determined for the milligram scale reaction run as follows: 25 mM EDA, 25 mM aniline, 25 μM protein, and 25 mM Na2S2O4. The reaction producing compounds 4.5 and 4.10 were carried out with protein (20 μM), ethyl diazo acetate (10.0 mM), aniline (20 mM) and Na2S2O4 (10 mM).
While substituted diazo compounds can also be used for insertion, the yield from N—H insertion of ethyl 2-diazopropanoate into aniline is only 26% (product 4.5). To improve efficiency of this reaction, we examined the reaction of ethyl 2-diazopropanoate with a variety of axial mutants. In particular, the axial mutant WT-AxA provided the desired product in 83% yield, compared to 8% yield and 1.7% yield with axial mutant WT-AxS and WT-BM3 heme domain, respectively (FIG. 37B).
The reactions shown in FIG. 37B were carried out with 10 μM catalyst loading, 20 mM aniline, 10 mM Na2S2O4 and 10 mM ethyl 2-diazopropanoate as described above. For the final entry in FIG. 37B, whole cells expressing BM3-CIS-T438S at 2.5 μM were used. See, U.S. Provisional Application No. 61/711,640 for the procedure for catalysis with whole cells.
For B1, the “yield of product 4.5” value is recorded as 1.7%.

Take B2: the “yield of product 4.5” value is 83%.

With B3, the “yield of product 4.5” value turned out to be 8%.

The next assay can be described thus: Intramolecular carbene C—H insertion, substrate 4.1a. The class given is biochemical. The following applies: 10 mM 4.1a, 10 uM P450, 10 mM Na2S2O4; product 4.2a. Here is the method:
Yield of product 4.22b was established after calibration with phenethyl alcohol as an internal standard. The reaction is not catalyzed by the WT-BM3 heme domain or hemin at 5% catalyst loading.
A representative procedure for P450-catalyzed C—H insertion is as follows: A vial containing WT-AxD (20 μL, 200 μM) was sealed with a teflon cap and the headspace of this vial was purged with argon for 5 min. Concurrently, a solution of sodium dithionite (11 mM in phosphate buffer pH=8) was degassed for a minimum of 5 min and 360 μL of this solution was transferred to the vial containing protein. The gas lines were disconnected from the vials. The substrate 4.1a or 4.1b was then added as a solution (20 μL, 200 mM). Final concentrations of all components were: 10 uM enzyme, 10 mM substrate, and 10 mM dithionite. […]
The mixture was extracted with 1 mL cyclohexane and analyzed by GC-MS or GC. GC-MS was performed on a Shimadzu TQ8030 GC-MS with ion count detector and J&W HP-5 column (30 m×0.32 mm, 0.25 μm film) using the following method: 90° C. (hold 2 min), 90-190° C. (20° C./min), and 190-230 (40° C./min)
In the case of B1, the Yield % was 0%.

In turn, B4 had a Yield % of 0%.

With B5, the Yield % amounted to 0%.

B6 gave a Yield % of 0%.

As for B7, the Yield % result is recorded as “trace”.

As for B2, the Yield % result is “trace”.

Still in this assay, the particulars now being: substrates 4.1a and 4.1b; 10 μM variant or hemin at 5% catalyst loading; 16 h.
Regarding B1, the “lactone formation via C—H bond insertion” value was “not catalyzed”.
